{"source": "patent US5534260A", "about": "“Percutaneous drug delivery system” (priority 1994, dated 1996)", "key": {"[1]": {"assay": "Enhancement of acetylcholine chloride penetration through hairless mouse skin at pH 7.4 (Example III)", "type": "in vitro ADME", "experimental": "A percutaneous permeation enhancer having the following formula was prepared: […]\nThe effect of the percutaneous enhancer, as prepared in Example II above, was measured on the penetration of the quaternary compound acetylcholine chloride through hairless mouse skin at pH 7.4. […] The data below indicates a potentiating or synergistic effect in combining the agents for use as an enhancer.\nEnhancement effect of 0.0465 mg/ml Sigma papain alone and in\ncombination with 2% Azone™ and 15% propylene glycol on the\npenetration of acetylcholine chloride through hairless mouse"}, "[2]": {"assay": "Skin damage / irritation by papain pretreatment", "conditions": "in words"}, "[3]": {"assay": "Effect of non-enzyme components in admixture with papain on penetration of 14C-TEAB (Example IV)"}, "[4]": {"assay": "Fourier Transform Infrared spectroscopy of stratum corneum", "design": "species or system mouse", "conditions": "for Absorbance in protein areas, peak position: Table I; for FTIR peak, Amide III / FTIR peak, Shoulder Beta sheet / FTIR peak, Alpha helix peak: Table IV; for FTIR peak, Amide III: untreated 1244; for FTIR peak, Shoulder Beta sheet: untreated 1267; for FTIR peak, Alpha helix peak: untreated 1295; for Symmetric CH peak position / Asymmetric CH peak position: Table V; for Symmetric CH peak position: normal SC 2848.3; for Asymmetric CH peak position: normal SC 2916.5; for Length of 70% line, symmetric line / Length of 70% line, asymmetric line: Table VI; for Length of 70% line, symmetric line: normal SC 8.6; for Length of 70% line, asymmetric line: normal SC 17.5", "experimental": "A. Comparisons of normal stratum corneum (from mouse skin) to stratum corneum treated with a 0.09% concentration of papain for 24 hours was performed using Fourier Transform Infrared spectroscopy (FTIR). […] It is postulated that a shift from a random form of protein to the more organized beta sheet structure occurs. The alpha-helix structures of skin protein could be fractionated, uncoiled, or both.\nA comparison of symmetric and asymmetric CH stretch bands was then made. These two bands represent lipid structure and would show any changes in the stratum corneum lipids caused by the papain.\nB. Azone™ was tested as a permeation enhancer with and without the presence of papain."}, "[5]": {"conditions": "acetylcholine chloride, pH 7.4, pretreated skin"}, "[6]": {"conditions": "14C-TEAB through pretreated skin (n = 1 for components alone, n = 2 combinations, n = 3 papain 0.0465 mg/ml 24 hours)"}}, "note": "“Also recorded” adds a separate entry of the source.", "data": [{"molecule": "papain: proteolytic enzyme; preferred enzyme, readily available from Sigma Chemical Company (protein, UniProt P00784 134-345, looked up) Papain: IPEYVDWRQKGAVTPVKNQGSCGSCWAFSAVVTIEGIIKIRTGNLNEYSEQELLDCDRRSYGCNGGYPWSALQLVAQYGIHYRNTYPYEGVQRYCRSREKGPYAAKTDGVRQVQPYNEGALLYSIANQPVSVVLEAAGKDFQLYRGGIFVGPCGNKVDHAVAAVGYGPNYILIKNSWGTGWGENGYIRIKRGTGNSYGVCGLYTSSFYPVKN", "values": [{"measurement": "E (enhancement effect)", "setting": "[1]; acetylcholine chloride, pH 7.4", "value": 88.4}, {"measurement": "J (flux)", "setting": "[1]; [5]", "value": "5.67 × 10^-4 mg/cm^2 /sec"}, {"measurement": "P (permeability)", "setting": "[1]; [5]", "value": 28.3, "unit": "nm/s"}, {"measurement": "increase in penetration of acetylcholine chloride", "setting": "[1]; pH 7.4, pretreatment", "value": "eighty-eight"}, {"measurement": "skin damage / irritation", "setting": "[2]", "value": "increased damage to the skin and can cause bleeding; also recorded: damage the skin, possibly leading to bleeding"}, {"measurement": "drug penetration", "setting": "pH 7.4", "value": "greater drug penetration"}, {"measurement": "increase in absorption of TEAB", "setting": "skin pretreated with papain", "value": "3,346%"}, {"measurement": "J (flux)", "setting": "[3]; [6]", "value": "(1.33 ± 0.48) × 10^-4 mg cm^-2 s^-1"}, {"measurement": "P (permeability)", "setting": "[3]; [6]", "value": "(1.63 ± 0.59) × 10^-7 cm s^-1"}, {"measurement": "E (enhancement effect)", "setting": "[3]; 14C-TEAB, n = 1 components alone, n = 2 combinations, n = 3 papain", "value": 32.93}, {"measurement": "recovery after removal of papain", "setting": "[4]; 24 hours", "value": "partial recovery"}, {"measurement": "recovery after removal of papain", "setting": "[4]; 48 hours", "value": "nearly complete recovery"}, {"measurement": "Absorbance in protein areas, peak position", "setting": "[4]; untreated SC 1244", "value": 1236.6, "unit": "cm⁻¹"}, {"measurement": "Absorbance in protein areas, peak position", "setting": "[4]; untreated SC 1267", "value": 1263.7, "unit": "cm⁻¹"}, {"measurement": "Absorbance in protein areas, peak position", "setting": "[4]; untreated SC 1295", "value": 1288.4, "unit": "cm⁻¹"}, {"measurement": "Absorbance in protein areas, peak position", "setting": "[4]; untreated SC 1400.5", "value": 1403.8, "unit": "cm⁻¹"}, {"measurement": "Absorbance in protein areas, peak position", "setting": "[4]; untreated SC 1456", "value": 1464.7, "unit": "cm⁻¹"}, {"measurement": "Absorbance in lipid areas, symmetric CH peak position", "setting": "[4]; Table II, untreated 2848.3", "value": 2850, "unit": "cm⁻¹"}, {"measurement": "Absorbance in lipid areas, asymmetric CH peak position", "setting": "[4]; Table II, untreated 2916.5", "value": 2920, "unit": "cm⁻¹"}, {"measurement": "Length of the 70% line, symmetric CH", "setting": "[4]; Table III, untreated 8.6", "value": 9.1, "unit": "cm⁻¹"}, {"measurement": "Length of the 70% line, asymmetric CH", "setting": "[4]; Table III, untreated 17.5", "value": 17.5, "unit": "cm⁻¹"}, {"measurement": "FTIR peak, Amide III", "setting": "[4]; 24 hr recovery after papain", "value": 1242.4, "unit": "cm⁻¹"}, {"measurement": "FTIR peak, Shoulder Beta sheet", "setting": "[4]; 24 hr recovery after papain", "value": 1271.8, "unit": "cm⁻¹"}, {"measurement": "FTIR peak, Alpha helix peak", "setting": "[4]; 24 hr recovery after papain", "value": 1301.7, "unit": "cm⁻¹"}, {"measurement": "FTIR peak, Amide III", "setting": "[4]; 48 hr recovery after papain", "value": 1243.2, "unit": "cm⁻¹"}, {"measurement": "FTIR peak, Shoulder Beta sheet", "setting": "[4]; 48 hr recovery after papain", "value": 1268.4, "unit": "cm⁻¹"}, {"measurement": "FTIR peak, Alpha helix peak", "setting": "[4]; 48 hr recovery after papain", "value": 1296.5, "unit": "cm⁻¹"}, {"measurement": "FTIR peak, Amide III", "setting": "[4]; papain treated", "value": 1236, "unit": "cm⁻¹"}, {"measurement": "FTIR peak, Shoulder Beta sheet", "setting": "[4]; papain treated", "value": 1262, "unit": "cm⁻¹"}, {"measurement": "FTIR peak, Alpha helix peak", "setting": "[4]; papain treated", "value": 1288, "unit": "cm⁻¹"}, {"measurement": "Symmetric CH peak position", "setting": "[4]; 48 hr recovery SC", "value": 2849.3, "unit": "cm⁻¹"}, {"measurement": "Asymmetric CH peak position", "setting": "[4]; 48 hr recovery SC", "value": 2916.5, "unit": "cm⁻¹"}, {"measurement": "Symmetric CH peak position", "setting": "[4]; papain treated SC", "value": 2848.5, "unit": "cm⁻¹"}, {"measurement": "Asymmetric CH peak position", "setting": "[4]; papain treated SC", "value": 2916.3, "unit": "cm⁻¹"}, {"measurement": "Length of 70% line, symmetric line", "setting": "[4]; 48 hr recovery SC", "value": 10.5, "unit": "cm⁻¹"}, {"measurement": "Length of 70% line, asymmetric line", "setting": "[4]; 48 hr recovery SC", "value": 19.3, "unit": "cm⁻¹"}, {"measurement": "Length of 70% line, symmetric line", "setting": "[4]; papain treated SC", "value": 9.1, "unit": "cm⁻¹"}, {"measurement": "Length of 70% line, asymmetric line", "setting": "[4]; papain treated SC", "value": 17.5, "unit": "cm⁻¹"}, {"measurement": "change in lipid structure / CH stretch bands of stratum corneum", "setting": "[4]; in words", "value": "no change in lipid structure"}, {"measurement": "change in protein FTIR areas of stratum corneum", "setting": "[4]; in words", "value": "significant changes occurring in the amide III, beta sheet, and alpha-helix formations of the stratum corneum cells"}]}]}
